These results are taken from patent US20230094463A1, “ANTIBODIES THAT DISRUPT THE INTERACTION OF GAL3 AND INSULIN RECEPTOR OR INTEGRINS AND METHODS OF USE THEREOF” (TrueBinding, Inc., priority 2019, published 2023).

The target of the experiment is T1, Gal3 peptides (SEQ ID NOs: 3-26) (Homo sapiens, UniProt P17931).
T1 construct: a library of 24 amino acid peptides representing portions of Gal3; purchased LifeTein custom order
The experiment in a line: Gal3 peptide library binding ELISA (epitope mapping). On the technique in general: An ELISA detects its analyte on a solid surface through an enzyme-linked reagent.

B1: TB001: Gal3-targeted Gal3-INSR blocking anti-Gal3 antibody; IMT001-4 used with human IgG4 isotype control (antibody, V domains shown)
VH: QVQLVQSGSELKKPGASVKVSCKASGYTFTNYGMNWVRQAPGQGLKWMGWINTNTGEPTYVEEFTGRFVFSLETSVSTAYLQISSLKAEDTAVYFCAPYDNFFAYWGQGTTVTVSS
VL: DIVLTQSPLSLPVTPGEPASISCRSSKSLLYKDGKTYLNWFLQKPGQSPQLLIYLMSTHASGVPDRFSGSGSGTDFTLKISRVEAEDVGVYYCQQLVDYPLTFGGGTKLEIK
For B1, the “binding to Gal3 Peptide 5” value (Peptide 5 (SEQ ID NO: 7)) is listed as “bind”. Moreover, for the setting “Peptide 6 (SEQ ID NO: 8), amino acids 51-70 of Gal3, listed as IMT001 (TB001)”, the “binding to Gal3 Peptide 6” value was “bind and bound”.
